The source of these data is patent US20240270793A1, “COMPOSITIONS” (UNIVERSITY OF SOUTHAMPTON, priority 2020, published 2024).

Data set [1] deals with 1α PAS-B mutants C255A, C334A or C337A. As to the kind of experiment: MST binding to 1α PAS-B cysteine mutants. More on the design: species or system human. The note with it: mutations C255A. From the text:
The potency imparted by the thiol motif raised the possibility of the interaction being disulfide-mediated. To counter this, all assays thus far had been performed with excess reducing agent tris(2-carboxyethyl)phosphine (TCEP) present in the buffers. Nonetheless the possibility was still considered due to the importance of the thiol moiety. As the HIF-α PAS-B domain contains multiple cysteines in internal cavities there remained the potential for disulfide bond formation within a solvent and TCEP-inaccessible region of the protein-peptide complex. Three 1α PAS-B mutants were therefore prepared with mutations C255A, C334A or C337A and the activity of the peptide CRLIIF [SEQ ID NO: 6, cyclic peptide #4] again tested by MST. It was anticipated that if a disulfide bond were to form with any of these then there would be a significant loss of binding for the peptide with the corresponding mutant.
(§1) HIF-α proteins were labelled with Monolith NT-647 labelling dye (Nanotemper Technologies GmbH) according to the manufacturer's instructions. MST experiments were performed on a Monolith NT.115 system (Nanotemper Technologies GmbH), in assay buffer containing 50 nM labelled protein, 10% DMSO and 0.05% TWEEN-20. MST measurements were performed using 50% LED and 50% MST power.

In the next data set the target is T1, HIF-1α PAS-B (238-349) (Homo sapiens, UniProt Q16665).
T1 construct: human HIF-1α PAS-B (238-349); His tag; made in house; host or cells: E. coli BL21(DE3)-Rosetta, pET28a
As to the kind of experiment: MST binding to recombinantly expressed HIF-1α PAS-B domain. As for the experimental part:
Genes encoding for human HIF-1α PAS-B (238-349) and HIF-2α PAS-B (240-350) were each cloned into pET28a vectors at the BamHI and SacI restriction sites. The recombinant plasmids were next transformed into BL21(DE3)-Rosetta chemically competent cells. Cells were grown in LB media at 37° C. to an OD600 of 0.7, after which expression was induced by addition of 0.5 mM IPTG. Following overnight expression at 16° C., cells were pelleted and resuspended in buffer containing 50 mM Tris, 150 mM NaCl, 5% glycerol, 1 mM TCEP, protease inhibitors (Roche) and 20 mM imidazole, pH 8.0. Cells were lysed by sonication, and the supernatant applied to a 1 mL Histrap FF affinity column. The His-tagged protein of interest was eluted with buffer containing 50 mM Tris, 150 mM NaCl, 5% glycerol, 1 mM TCEP and 250 mM imidazole. The protein was then loaded onto a HiLoad 16/600 superdex 75 pg size exclusion column (GE healthcare) equilibrated with assay buffer containing 50 mM Tris, 150 mM NaCl, 5% glycerol and 1 mM TCEP, pH 8.0. Fractions containing the desired protein were flash-frozen and stored at −80° C. prior to use.
as §1

For data set [2] the following is noted: cited from earlier work.
Another data set deals with HIF-2α/1α:HIF-1β RTHS. The experiment in a line: RTHS secondary screening, drop-spotting regrowth assay. It counts as cell-based. The note with it: SICLOPPS-expressed peptide, control CAAAAA. As for the experimental part:
A screen for cyclic peptide inhibitors of HIF-2 dimerization was performed using SICLOPPS with a HIF-2 RTHS, using a method described previously.^8,9 (FIG. 1a). A secondary screen was then also conducted on the HIF-1 RTHS to compare selectivity, after which the hits found to inhibit both HIF-2 and HIF-1 were chosen for further review (FIG. 1b). SICLOPPS plasmids that produced a growth advantage in both systems were further screened in an unrelated p6/UEV RTHS to eliminate false positives (FIG. 1b).
It was expected that the similarity between these peptides would translate to a common structure-affinity relationship trend between the three, and that any differences in affinity could be used to inform optimisation efforts. In addition, all three peptides contained a basic side chain (arginine or lysine), which are protonated under physiological conditions, and would therefore aid solubility and potentially provide a useful polar interaction with the proteins themselves. […] The splicing efficiency of peptides from the Ssp intein may vary slightly depending on their sequence, thus resulting in different concentrations of peptide in the cell, which may therefore bias the extent of regrowth response.^10 It was therefore decided that to fully validate these hits, that the binding activity was to be assessed under in vitro assay conditions. […]

Data set [3] has as its target T2, human HIF-1α PAS-B (238-349), recombinant, His-tagged (human, UniProt Q16665 238-349, labelled with Monolith NT-647 dye for MST).
T2 construct: range 238-349; Expressed in E. coli BL21(DE3)-Rosetta from pET28a; also called HIF-1α PAS-B domain; PAS-B domain of HIF-1α; not shown: His tag from pET28a vector (BamHI/SacI cloning)
As to the kind of experiment: MST, HIF-1α PAS-B; bar chart of Kd (µM) for residues at position 6 of CRLIIF.

The target in data set [4] is T2, human HIF-1α PAS-B (238-349), …. The experiment in a line: MST, NT-647-labelled recombinant 1α PAS-B. As for the experimental part: as §1
Data set [5] has the same target. The experiment in a line: MST, peptide titrated against labelled HIF-1α PAS-B [top panel].
Data set [6] deals with T3, human HIF-2α PAS-B (240-350), recombinant, His-tagged (human, UniProt Q99814 240-350, labelled with Monolith NT-647 dye for MST).
T3 construct: range 240-350; Expressed in E. coli BL21(DE3)-Rosetta from pET28a; also called PAS-B domain of HIF-2α; not shown: His tag from pET28a vector (BamHI/SacI cloning)
As to the kind of experiment: MST, peptide titrated against labelled HIF-2α PAS-B [top panel].

The target in data set [7] is T3, human HIF-2α PAS-B (240-350), …. The experiment in a line: MST, NT-647-labelled recombinant PAS-B domain. As for the experimental part: as §1
Data set [8] concerns the target T2, human HIF-1α PAS-B (238-349), …. The experiment in a line: MST, NT-647-labelled recombinant PAS-B domain. As for the experimental part: as §1
Data set [9] addresses T3, human HIF-2α PAS-B (240-350), …. As to the kind of experiment: MST, peptide titrated against labelled HIF-2α PAS-B [bottom panel].
Data set [10] addresses T2, human HIF-1α PAS-B (238-349), …. The experiment in a line: MST, ratio of Kd on HIF-2α PAS-B to Kd on HIF-1α PAS-B.
The target is the same in data set [11]. As to the kind of experiment: MST, peptide titrated against labelled HIF-1α PAS-B [bottom panel].
Data set [12] addresses T3, human HIF-2α PAS-B (240-350), …. The experiment in a line: MST, peptide titrated against labelled HIF-2α PAS-B [middle panel].
The target of data set [13] is T2, human HIF-1α PAS-B (238-349), …. The experiment in a line: MST, peptide titrated against labelled HIF-1α PAS-B [middle panel].
Data set [14] deals with T3, human HIF-2α PAS-B (240-350), …. As to the kind of experiment: MST, HIF-2α PAS-B against HIF-1α PAS-B. As for the experimental part: as §1
The target of data set [15] is HIF (hypoxia inducible factor) in the YFP-reporter T-REx-293 (HEK) cell line. The experiment in a line: cell-based or functional assay.
For data set [16], the target named is T3, human HIF-2α PAS-B (240-350), …. As to the kind of experiment: MST, NT-647-labelled recombinant HIF-2α PAS-B. As for the experimental part:
as §1

Data set [17] has as its target T2, human HIF-1α PAS-B (238-349), …. As to the kind of experiment: MST, NT-647-labelled recombinant HIF-1α PAS-B. As for the experimental part:
as §1

In general, Kd refers to the concentration at which binding is half-saturated.

Square brackets hold non-standard residues; d marks the D form. Peptide text beside a SMILES is read from it. Phe(4-I) = N[C@@H](Cc1ccc(I)cc1)C(=O)O

T2 sequence (Q16665 238-349): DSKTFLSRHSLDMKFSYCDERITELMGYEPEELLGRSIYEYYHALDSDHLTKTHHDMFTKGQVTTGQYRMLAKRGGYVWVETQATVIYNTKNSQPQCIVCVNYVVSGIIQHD
T3 sequence (Q99814 240-350): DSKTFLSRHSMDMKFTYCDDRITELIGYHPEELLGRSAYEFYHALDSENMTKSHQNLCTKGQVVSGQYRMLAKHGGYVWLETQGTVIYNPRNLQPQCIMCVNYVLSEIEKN
T1 sequence (Q16665 238-349): as the sequence (Q16665 238-349) above

Consider `CC[C@H](C)[C@@H]1NC(=O)[C@H](CC(C)C)NC(=O)[C@H](CCCNC(=N)N)NC(=O)[C@H](CS)NC(=O)[C@H](Cc2ccccc2)NC(=O)[C@H]([C@@H](C)CC)NC1=O` [Cyclic peptide #4, cyclo-cys agr leu ile ile phe] (cyclo(CRLIIF)), for which the “affinity for 1α PAS-B mutants compared to wild-type protein” value in data set [1] is “identical to that of the wild-type protein”. Also, the “greater affinity than CKLLIF” value on HIF-1α PAS-B (238-349) (MST against 1α PAS-B) is “about 3 fold”.
For the molecule “CLLFVY: previously reported selective inhibitor of HIF-1 dimerization, cyclic peptide Cys leu leu phe val tyr”, in data set [2], the “solubility of previously reported HIF-1 inhibitor” value is on record as “comparatively insoluble”.
Turning to `CC[C@H](C)[C@@H]1NC(=O)[C@H](C(C)C)NC(=O)[C@H](CCCNC(=N)N)NC(=O)[C@H](CS)NC(=O)[C@H](Cc2ccccc2)NC(=O)[C@H]([C@@H](C)CC)NC1=O` [Cyclic peptide #3, cyclo-cys arg val ile ile phe] (cyclo(CRVIIF)), in the data set with HIF-2α/1α:HIF-1β RTHS, the “regrowth response in drop-spotting assay” value is reported as “greatest regrowth response”. At HIF-1α PAS-B (238-349) (MST affinities, 1α vs 2α PAS-B), the “selectivity for 1α over 2α” value was found to be 2 fold.

B1: cyclo-cys arg leu ile ile tyr (peptide)
peptide: CRLIIY
modifications: head-to-tail cyclic (cyclo-)
notes: also called Cyclo-CRLIIY; cyclic peptide #29
B1: the binding result in data set [3] is on record as “binds”.

B2: cyclo-cys lys leu ile ile phe (peptide)
peptide: CKLIIF
modifications: head-to-tail cyclic (cyclo-)
notes: also called CKLIIF; cyclic peptide #1
B2: the Kd in data set [4] is 2.5 µM; in data set [5], 2.6 µM; in data set [6] it was 2.2 µM; in data set [7], approximately 2 µM; in [8] it was approximately 2 µM.

B3: cyclo-cys arg val ile ile phe (peptide)
peptide: CRVIIF
modifications: head-to-tail cyclic (cyclo-)
notes: also called CRVIIF; cyclic peptide #3
With B3, the Kd in data set [9] turned out to be 123 µM; in data set [7] it was 118 µM; in data set [8], 61 µM; in data set [11], 65.5 µM. For the same molecule, the “fold selectivity for 1α over 2α” value in data set [10] is approximately 2 fold.

B4: cyclo-cys arg leu leu ile phe (peptide)
peptide: CRLLIF
modifications: head-to-tail cyclic (cyclo-)
notes: also called CRLLIF; cyclic peptide #2
For B4, the dissociation constant Kd in data set [12] is 10.2 µM; in data set [4], 14 µM; in data set [13], 14.5 µM.

B5: cyclo-cys arg leu ile ile (4-I)phe (peptide)
peptide: cyclo(CRLII[Phe(4-I)])
SMILES: CC[C@H](C)[C@@H]1NC(=O)[C@H](CC(C)C)NC(=O)[C@H](CCCNC(=N)N)NC(=O)[C@H](CS)NC(=O)[C@H](Cc2ccc(I)cc2)NC(=O)[C@H]([C@@H](C)CC)NC1=O
notes: also called CRLIIF(4I); Cyclo-CRLIIF(4-I)
Take B5: the “fold loss in Kd compared to the 1α isoform” value in [14] is 2.2 fold. Also, the IC50 in the YFP reporter assay (HRE-driven YFP in T-REx-293 cells, hypoxia) in data set [15] was 35 µM. In addition, in [16], the Kd amounted to 1.9 µM. Also, in data set [17], the Kd came to 0.85 µM and the “fold improvement in affinity relative to the parent compound CRLIIF” value was 4.5 fold.
